Laboratory results: the RNAGym collection of RNA variant scans (doi:10.1021/acssynbio.7b00057)

B1: Pistol ribozyme (parent)
chain: GGGUCGUUGUUCCAUAAUCGCGUGGAUAUGGCACGCAAGUUUCUACCGGGCACCGUAAAUGUCCGACUGGAGCCGUUCGGGCGGCUAUAAACAGACCUCAGGCCCGAAGCGUGGCGGCACCUGCCGCCGGUGGUAAAAAAGAUCGGAAGAGCACACGUCU

Variants of: B1
Assay: aptazyme ON/OFF ratio, guanine; higher = stronger switching; co-transcriptional cleavage with and without guanine

| Variant | aptazyme ON/OFF ratio |
| --- | --- |
| U7G U10G U11G C12U | 1.24 |
| U7G U10G U11G C12G | 1.15 |
| U7G U10G U11G C12A | 1.08 |
| U7G U10A U11C | 1 |
| U7G U10A U11G | 1.71 |
| U7G U11A C13U | 1.36 |
| U7G U11A C13A | 1.16 |
| U7G U11A C13G | 1.08 |
| U7G U10G U11C C12A C13U | 1.17 |
| U7G U10G U11C C12A C13A | 1.11 |
| U7G U10G U11C C12A C13G | 1.12 |
| U7G U10C C12U C13A | 1.04 |
| U7G U10C C12U C13U | 1.07 |
| U7G U10C C12U C13G | 1.06 |
| U7G U10C U11A C12U C13G | 1.11 |
| U7G U10C U11A C12U C13U | 1.1 |
| U7G U10C U11A C12U C13A | 1.12 |
| U8A G9A U10A U11G C12U C13A | 1.3 |
| U8A G9A U10A U11G C12U C13U | 1.4 |
| U8A G9A U10A U11G C12U C13G | 1.18 |
| U8A G9A C12U | 1.33 |
| U8A G9A C12A | 1.34 |
| U8A G9A C12G | 1.41 |
| U7G U10G U11A C12G | 1.08 |

| Variant | aptazyme ON/OFF ratio |
| --- | --- |
| U7G U10G U11A C12U | 1.1 |
| U7G U10G U11A C12A | 1.14 |
| U7G U10G C12G | 1.09 |
| U7G U10G C12U | 1.39 |
| U7G U10G C12A | 1.22 |
| U7G U10G C12U C13G | 1.24 |
| U7G U10G C12U C13U | 1.43 |
| U7G U10G C12U C13A | 1.18 |
| U7G U10G C12A C13A | 1.09 |
| U7G U10G C12A C13G | 1.11 |
| U7G U10G C12A C13U | 1.34 |
| U8A | 2.82 |
| U7G U10A U11A C12U C13A | 1.09 |
| U7G U10A U11A C12U C13U | 1.16 |
| U7G U10A U11A C12U C13G | 1.13 |
| U7G U10C U11C C12G | 1.13 |
| U7G U10C U11C C12U | 1.12 |
| U7G U10C U11C C12A | 1.1 |
| U7G U11A C12G C13U | 1.12 |
| U7G U11A C12G C13A | 1.08 |
| U7G U11A C12G C13G | 1.11 |
| U7G U10C U11A C12G | 1.18 |
| U7G U10C U11A C12A | 1.18 |
| U7G U10C U11A C12U | 1.2 |

| Variant | aptazyme ON/OFF ratio |
| --- | --- |
| U7G U10G U11C C13U | 1.13 |
| U7G U10G U11C C13A | 1.11 |
| U7G U10G U11C C13G | 1.07 |
| U7G U10G U11A C13A | 1.11 |
| U7G U10G U11A C13G | 1.07 |
| U7G U10G U11A C13U | 1.11 |
| U8A G9A U10A U11G C12A C13G | 1.18 |
| U8A G9A U10A U11G C12A C13U | 1.11 |
| U8A G9A U10A U11G C12A C13A | 1.03 |
| U7G U10C U11C C12U C13G | 1.09 |
| U7G U10C U11C C12U C13U | 1.09 |
| U7G U10C U11C C12U C13A | 1.06 |
| U8A G9A U10A C13A | 1.26 |
| U8A G9A U10A C13G | 1.1 |
| U8A G9A U10A C13U | 1.2 |
| U7G U11C C12U C13G | 1.1 |
| U7G U11C C12U C13U | 1.19 |
| U7G U11C C12U C13A | 1.13 |
| U7G U10C U11G C13G | 1.09 |
| U7G U10C U11G C13A | 1.08 |
| U7G U10C U11G C13U | 1.14 |
| U7G U11G C12G C13G | 1.14 |
| U7G U11G C12G C13A | 1.09 |
| U7G U11G C12G C13U | 1.04 |

| Variant | aptazyme ON/OFF ratio |
| --- | --- |
| U8A C12U C13G | 1.35 |
| U8A C12U C13A | 1.28 |
| U8A C12U C13U | 1.38 |
| U7G U10C U11A C12G C13A | 1.07 |
| U7G U10C U11A C12G C13U | 1.06 |
| U7G U10C U11A C12G C13G | 1.11 |
| U7G U10A U11G C12G C13G | 1.26 |
| U7G U10A U11G C12G C13A | 1.18 |
| U7G U10A U11G C12G C13U | 1.63 |
| U7G U10G U11A | 1.21 |
| U7G U10G U11G | 1.53 |
| U7G U10G U11C | 1.07 |
| U7G U11C | 1.11 |
| U7G U11A | 2.37 |
| U7G U11G | 1.32 |
| U7G U11G C12U C13U | 1.2 |
| U7G U11G C12U C13G | 1.12 |
| U7G U11G C12U C13A | 1.14 |
| U7G U11G C12A | 1.11 |
| U7G U11G C12G | 1.23 |
| U7G U11G C12U | 1.2 |
| U7G U11G C12A C13U | 1.14 |
| U7G U11G C12A C13G | 1.11 |
| U7G U11G C12A C13A | 1.13 |

| Variant | aptazyme ON/OFF ratio |
| --- | --- |
| U8A G9A C12G C13G | 1.2 |
| U8A G9A C12G C13U | 1.18 |
| U8A G9A C12G C13A | 1.36 |
| U7G U10C C13A | 1.04 |
| U7G U10C C13U | 1.03 |
| U7G U10C C13G | 1.04 |
| U7G U10G U11C C12U C13A | 1.08 |
| U7G U10G U11C C12U C13G | 1.3 |
| U7G U10G U11C C12U C13U | 1.25 |
| U8A G9A U10C C12A C13G | 1.13 |
| U8A G9A U10C C12A C13A | 1.19 |
| U8A G9A U10C C12A C13U | 1.18 |
| U8A G9A U10A C12G C13U | 1.42 |
| U8A G9A U10A C12G C13G | 1.28 |
| U8A G9A U10A C12G C13A | 1.25 |
| U7G U10G U11A C12U C13A | 1.1 |
| U7G U10G U11A C12U C13U | 1.08 |
| U7G U10G U11A C12U C13G | 1.16 |
| U8A G9A | 1.91 |
| U7G U10A U11G C12U | 1.32 |
| U7G U10A U11G C12G | 1.21 |
| U7G U10A U11G C12A | 1.13 |
| U7G U10A U11G C13G | 1.14 |
| U7G U10A U11G C13A | 1.16 |

| Variant | aptazyme ON/OFF ratio |
| --- | --- |
| U7G U10A U11G C13U | 1.22 |
| U8A G9A U10A U11C C12A | 1.09 |
| U8A G9A U10A U11C C12G | 1.13 |
| U8A G9A U10A U11C C12U | 1.08 |
| U8A G9A U10A U11A C12A | 1.24 |
| U8A G9A U10A U11A C12U | 1.13 |
| U8A G9A U10A U11A C12G | 1.24 |
| U7G U10G U11A C12A C13U | 1.08 |
| U7G U10G U11A C12A C13G | 1.09 |
| U7G U10G U11A C12A C13A | 1.14 |
| U7G U11C C12U | 1.27 |
| U7G U11C C12A | 1.21 |
| U7G U11C C12G | 1.26 |
| U7G U10C U11C C12G C13A | 1.1 |
| U7G U10C U11C C12G C13U | 1.06 |
| U7G U10C U11C C12G C13G | 1.08 |
| U8A G9A U10A C12G | 1.17 |
| U8A G9A U10A C12U | 1.24 |
| U8A G9A U10A C12A | 1.43 |
| U8A G9A U10A U11G C12A | 1.01 |
| U8A G9A U10A U11G C12G | 1.15 |
| U8A G9A U10A U11G C12U | 1.15 |
| U7G U10C U11A C13G | 1.06 |
| U7G U10C U11A C13U | 1.16 |

| Variant | aptazyme ON/OFF ratio |
| --- | --- |
| U7G U10C U11A C13A | 1.08 |
| U7G U10C U11G C12A C13U | 1.11 |
| U7G U10C U11G C12A C13A | 1.11 |
| U7G U10C U11G C12A C13G | 1.07 |
| U7G U10A U11A C13G | 1.11 |
| U7G U10A U11A C13U | 1.11 |
| U7G U10A U11A C13A | 1.14 |
| U7G U10A U11C C12G C13A | 1.1 |
| U7G U10A U11C C12G C13G | 1.03 |
| U7G U10A U11C C12G C13U | 1.11 |
| U7G U10C C12G | 1.26 |
| U7G U10C C12U | 1.2 |
| U7G U10C C12A | 1.12 |
| U8A G9A U10A U11G | 1.34 |
| U8A G9A U10A U11A | 1.35 |
| U8A G9A U10A U11C | 1.05 |
| U8A G9A U10A U11C C12U C13A | 1.14 |
| U8A G9A U10A U11C C12U C13U | 1.15 |
| U8A G9A U10A U11C C12U C13G | 1.17 |
| U8A G9A U10A C12A C13A | 1.17 |
| U8A G9A U10A C12A C13G | 1.17 |
| U8A G9A U10A C12A C13U | 1.39 |
| U8A G9A U10C C12U C13A | 1.17 |
